Test results from article PMC11229353 (Nucleic Acids Research, 2024).
Entries after “also recorded” stand apart in the source; their conditions may differ. The star is where a group is joined. Biotin = O=C1N[C@H]2[C@H](CS[C@H]2CCCCC(=O)*)N1

B3: DMC1 (untagged full-length human DMC1, wild type) (natural protein, UniProt Q14565 1-340, looked up)
chain: MKEDQVVAEEPGFQDEEESLFQDIDLLQKHGINVADIKKLKSVGICTIKGIQMTTRRALCNVKGLSEAKVDKIKEAANKLIEPGFLTAFEYSEKRKMVFHITTGSQEFDKLLGGGIESMAITEAFGEFRTGKTQLSHTLCVTAQLPGAGGYPGGKIIFIDTENTFRPDRLRDIADRFNVDHDAVLDNVLYARAYTSEHQMELLDYVAAKFHEEAGIFKLLIIDSIMALFRVDFSGRGELAERQQKLAQMLSRLQKISEEYNVAVFVTNQMTADPGATMTFQADPKKPIGGHILAHASTTRISLRKGRGELRIAKIYDSPEMPENEATFAITAGGIGDAKE

Experiments:
DMC1 [1] = biological target: T1, DMC1 (Homo sapiens, UniProt Q14565); experiment: Biolayer interferometry; type: binding; conditions: immobilized biotinylated peptide, DMC1 concentration of 5 μM, 25°C
T1 sequence (Q14565 1-340): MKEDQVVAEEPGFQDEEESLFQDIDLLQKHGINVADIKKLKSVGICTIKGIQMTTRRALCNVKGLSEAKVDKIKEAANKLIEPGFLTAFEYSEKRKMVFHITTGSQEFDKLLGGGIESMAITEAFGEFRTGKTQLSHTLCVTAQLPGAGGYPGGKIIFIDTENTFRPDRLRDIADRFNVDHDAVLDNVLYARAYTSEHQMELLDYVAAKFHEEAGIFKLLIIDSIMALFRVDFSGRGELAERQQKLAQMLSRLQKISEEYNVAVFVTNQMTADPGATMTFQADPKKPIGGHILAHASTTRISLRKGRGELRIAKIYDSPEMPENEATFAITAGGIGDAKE

DMC1–ssDNA filaments = experiment: Electrophoretic mobility shift assay; type: binding, human; conditions: EMSA, 2 μM DMC1, 2 μM PhePP F2s3, 90 nt ssDNA, Ca-ATP, 30 min 37°C
[2] = biological target: B3; experiment: ITC
[3] = biological target: B3; experiment: BLI
DMC1 [4] = biological target: T2, DMC1 (human, UniProt Q14565 1-340); experiment: EMSA
T2 sequence: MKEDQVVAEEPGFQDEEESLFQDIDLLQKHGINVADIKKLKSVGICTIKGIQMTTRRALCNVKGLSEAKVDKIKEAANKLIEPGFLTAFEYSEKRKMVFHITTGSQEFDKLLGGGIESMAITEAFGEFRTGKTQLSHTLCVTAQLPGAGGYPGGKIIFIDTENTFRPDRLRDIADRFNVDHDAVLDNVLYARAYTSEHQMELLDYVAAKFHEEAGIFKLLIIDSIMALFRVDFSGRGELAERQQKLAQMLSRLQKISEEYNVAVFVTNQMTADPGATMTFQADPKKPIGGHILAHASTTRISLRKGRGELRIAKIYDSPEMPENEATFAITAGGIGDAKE

DMC1 F89A = biological target: T3, DMC1 F89A (human, UniProt Q14565 1-340, F89A); experiment: EMSA
T3 sequence: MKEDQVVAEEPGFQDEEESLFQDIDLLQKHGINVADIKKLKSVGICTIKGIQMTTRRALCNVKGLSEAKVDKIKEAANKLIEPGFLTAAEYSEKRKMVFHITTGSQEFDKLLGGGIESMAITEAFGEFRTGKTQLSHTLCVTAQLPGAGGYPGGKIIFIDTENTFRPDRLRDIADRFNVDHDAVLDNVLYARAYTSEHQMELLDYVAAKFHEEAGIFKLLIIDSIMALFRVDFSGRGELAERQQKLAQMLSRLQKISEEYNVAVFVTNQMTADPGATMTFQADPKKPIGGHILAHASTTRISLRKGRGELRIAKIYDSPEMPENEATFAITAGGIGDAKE

DMC1;BRCA2 F2s3 (PhePP) = biological target: T4, DMC1;BRCA2 F2s3 (PhePP) (human;human, UniProt Q14565;P51587 1-340;2379-2433, |); experiment: EMSA
T4 sequence 1: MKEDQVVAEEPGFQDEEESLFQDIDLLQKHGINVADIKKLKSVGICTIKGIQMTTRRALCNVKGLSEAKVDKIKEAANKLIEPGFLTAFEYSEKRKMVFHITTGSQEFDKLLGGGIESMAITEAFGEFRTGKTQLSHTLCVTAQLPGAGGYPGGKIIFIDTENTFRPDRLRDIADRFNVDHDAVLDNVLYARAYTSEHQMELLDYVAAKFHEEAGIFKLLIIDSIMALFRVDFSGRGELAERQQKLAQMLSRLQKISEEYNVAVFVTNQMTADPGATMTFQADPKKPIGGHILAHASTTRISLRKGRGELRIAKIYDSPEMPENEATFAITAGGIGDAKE
T4 sequence 2: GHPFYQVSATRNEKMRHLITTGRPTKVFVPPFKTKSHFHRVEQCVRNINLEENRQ

crystal structure = biological target: the molecule itself; experiment: crystal structure
[5] = biological target: B3; experiment: BLI; remark: listed apart in the source
[6] = biological target: B3; experiment: pull-down

Biotin-GSG-SNHSFGGSFRTASNKEIKLSEHNIKKSKMFFKDIEE-NH2 [BRC1, reference compound]
binding to DMC1 detected by BLI (DMC1 [1]): No binding was detected; also recorded: no interaction could be detected

Biotin-GSG-TTGRPTKVAVPPFKTKSHFH-NH2 [PhePPmut]
binding to DMC1 detected by BLI (DMC1 [1]): No binding was detected

Biotin-GSG-VSPAAQKAFQPPRSSGTKYE-NH2 [TR2]
binding to DMC1 detected by BLI (DMC1 [1]): No binding was detected; also recorded: no interaction could be detected

F2s3: purified bacterially expressed BRCA2 fragment 2379–2433 containing the PhePP motif
effect on electrophoretic mobility of the DMC1–ssDNA complex (DMC1–ssDNA filaments): reduced electrophoretic mobility

Ac-TTGRPTKVFVPPFKTKSHFH-NH2 [BRCA2 F2s6 (2398–2417) synthetic peptide]
Kd [2]: 3400 ± 1300 nM
Kd [3]: 2100 ± 500 nM

B1: BRCA2 F2s3 (2379–2433), purified recombinant peptide (domain or fragment, human, UniProt P51587 2379-2433, looked up)
chain: GHPFYQVSATRNEKMRHLITTGRPTKVFVPPFKTKSHFHRVEQCVRNINLEENRQ
Kd [2]: 3000 ± 500 nM

B2: AF-647-SK3-90 ssDNA (ssDNA)
DNA: AATTCTCATTTTACTTACCGGACGCTATTAGCAGTGGCAGATTGTACTGAGAGTGCACCATATGCGGTGTGAAATACCGCACAGATGCGT
binding result (DMC1 [4]): binds
binding result (DMC1 F89A): binds
binding result (DMC1;BRCA2 F2s3 (PhePP)): binds

B3
stoichiometry N (crystal structure): 8

Biotin-GSGSAESKKPKWVPPAASGGSRS-NH2 [biotinylated RAD51AP1 P-motif peptide]
Kd [5]: ~1600 nM

B4: GST-tagged BRCA2 F2 (2351–2479), wild type (domain or fragment, human, UniProt P51587 2351-2479, looked up)
chain: APGQEFLSKSHLYEHLTLEKSSSNLAVSGHPFYQVSATRNEKMRHLITTGRPTKVFVPPFKTKSHFHRVEQCVRNINLEENRQKQNIDGHGSDDSKNKINDNEIHQFNKNNSNQAVAVTFTKCEEEPLD
binding result [6]: binds

Biotin-GSGTTGRPTKVFVPPFKTKSHFH-NH2 [biotinylated BRCA2 F2s6 peptide (Biotin-GSG-F2s6-NH2)]
Kd [5]: ~1 nM

B5: GST-tagged BRCA2 F2 R2401A (domain or fragment, human, UniProt P51587 2351-2479, looked up)
chain: APGQEFLSKSHLYEHLTLEKSSSNLAVSGHPFYQVSATRNEKMRHLITTGAPTKVFVPPFKTKSHFHRVEQCVRNINLEENRQKQNIDGHGSDDSKNKINDNEIHQFNKNNSNQAVAVTFTKCEEEPLD
binding result [6]: binds

B6: GST-tagged BRCA2 F2s3 K2404A (domain or fragment, human, UniProt P51587 2379-2433, looked up)
chain: GHPFYQVSATRNEKMRHLITTGRPTAVFVPPFKTKSHFHRVEQCVRNINLEENRQ
binding result [6]: binds

Biotin-GSGRSRGILGKFVPPIPKQDGGE-NH2 [biotinylated FIGNL1 P-motif peptide]
Kd [5]: ~16200 nM

B7: GST-tagged BRCA2 F2s3 R2401A (domain or fragment, human, UniProt P51587 2379-2433, looked up)
chain: GHPFYQVSATRNEKMRHLITTGAPTKVFVPPFKTKSHFHRVEQCVRNINLEENRQ
binding result [6]: binds

B8: GST-tagged BRCA2 F2 K2404A (domain or fragment, human, UniProt P51587 2351-2479, looked up)
chain: APGQEFLSKSHLYEHLTLEKSSSNLAVSGHPFYQVSATRNEKMRHLITTGRPTAVFVPPFKTKSHFHRVEQCVRNINLEENRQKQNIDGHGSDDSKNKINDNEIHQFNKNNSNQAVAVTFTKCEEEPLD
binding result [6]: binds
